Assay [1] deals with T1, recombinant human CD30L (human, UniProt P32971 63-234).
T1 construct: Purified recombinant protein of ELISA, BLI, Carterra and KinExA; also called rhCD30L; huCD30L
T1 sequence (looked up): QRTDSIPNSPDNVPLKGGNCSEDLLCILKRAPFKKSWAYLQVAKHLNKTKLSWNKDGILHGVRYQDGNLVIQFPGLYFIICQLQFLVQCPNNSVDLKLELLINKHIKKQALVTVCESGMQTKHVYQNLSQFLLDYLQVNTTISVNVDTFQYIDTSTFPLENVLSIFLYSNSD
In words: ELISA on recombinant protein. Background: An ELISA detects its analyte on a solid surface through an enzyme-linked reagent.

For assay [2], the target named is T2, recombinant cynomolgus CD30L (cynomolgus, UniProt A0A7N9CVX7 63-234).
T2 construct: Purified recombinant protein; also called rcyCD30L; cyno CD30L
T2 sequence: T1 sequence (looked up) with V13I, K16R, I142V, I165V
In words: ELISA on recombinant protein.

Assay [3] addresses T3, recombinant mouse CD30L (mouse, UniProt P32972 68-239).
T3 construct: Purified recombinant protein; also called rmCD30L
T3 sequence (looked up): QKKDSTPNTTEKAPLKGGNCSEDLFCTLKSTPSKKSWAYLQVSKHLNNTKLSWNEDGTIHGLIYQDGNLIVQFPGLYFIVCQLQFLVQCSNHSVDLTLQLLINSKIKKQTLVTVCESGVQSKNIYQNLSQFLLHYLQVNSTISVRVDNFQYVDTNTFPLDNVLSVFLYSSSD
In words: ELISA on recombinant protein.

For assay [4], the target named is T1, recombinant human CD30L. Description: recombinant blocking ELISA; competitor CD30.
The target in assay [5] is T1, recombinant human CD30L. In words: ELISA, binding to rhCD30L (OD 450 nm).
Assay [6] has as its target T4, human CD30L expressed on B16 cells (human, UniProt P32971 1-234).
T4 construct: whole, on cells; B16 cell line transfected to express human CD30L; also called B16-huCD30L; B16-rhCD30L
T4 sequence (looked up): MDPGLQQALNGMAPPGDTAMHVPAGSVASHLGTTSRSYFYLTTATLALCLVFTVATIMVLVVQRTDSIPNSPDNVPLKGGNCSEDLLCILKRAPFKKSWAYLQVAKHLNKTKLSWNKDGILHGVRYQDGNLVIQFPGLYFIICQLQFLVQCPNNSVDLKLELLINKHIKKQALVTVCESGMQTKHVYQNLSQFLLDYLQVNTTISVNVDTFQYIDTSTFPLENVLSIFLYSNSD
In words: flow cytometry on B16 cells expressing hCD30L. A general note: A flow cytometer gives signals particle by particle.

For assay [7], the target named is T1, recombinant human CD30L. In words: BLI, CD30 association to CD30L held by captured IgG; competitor rhCD30. (In general: Biolayer interferometry detects binding as a change in optical thickness at a sensor tip.)
Description: Briefly, individual anti-human biosensors were loaded with purified IgG (normalized to 10 μg/mL) and a baseline was measured for each biosensor. Biosensors were saturated with biotin and with polyclonal hulgG and a baseline was measured. Loaded biosensors were then allowed to bind CD30L and the association rate was measured for the binding. Biosensors were moved to buffer wells to measure the dissociation rate.
For assay [8], the target named is T4, human CD30L expressed on B16 cells. In words: flow cytometry, binding to B16 cells expressing human CD30L (MFI).
For assay [9] the target is unchanged. In words: cell-based or functional assay.
The target in assay [10] is T5, cynomolgus CD30L expressed on HEK293 cells (cynomolgus, UniProt A0A7N9CVX7 1-234).
T5 sequence: T4 sequence (looked up) with A19T, M20T, G32E, L41F, V75I, K78R, I204V, I227V
Description: cell-based or functional assay.

The target in assay [11] is T1, recombinant human CD30L. In words: ELISA, binding to purified rhCD30L.
Assay [12] has as its target T2, recombinant cynomolgus CD30L. Description: ELISA, binding to purified rcyCD30L.
For assay [13], the target named is T4, human CD30L expressed on B16 cells. In words: flow cytometry, binding to B16-rhCD30L cells.
Assay [14] addresses T5, cynomolgus CD30L expressed on HEK293 …. Description: flow cytometry, binding to HEK293-cyCD30L cells.
Assay [15] deals with T1, recombinant human CD30L. In words: ELISA, blocking of CD30-Fc on huCD30L; competitor CD30-Fc.
Assay [16] deals with T2, recombinant cynomolgus CD30L. Description: ELISA, blocking of CD30-Fc on rcyCD30L; competitor CD30-Fc.
In assay [17] the target is T4, human CD30L expressed on B16 cells. Description: flow cytometry, blocking of CD30-Fc on B16-huCD30L cells; competitor CD30-Fc.
Assay [18] deals with T5, cynomolgus CD30L expressed on HEK293 …. In words: flow cytometry, blocking of CD30-Fc on HEK293-cyCD30L cells; competitor CD30-Fc.
Assay [19] deals with T6, CDH13 (human, UniProt P55290 139-693).
T6 construct: whole, on cells; also called hit #16
T6 sequence (looked up): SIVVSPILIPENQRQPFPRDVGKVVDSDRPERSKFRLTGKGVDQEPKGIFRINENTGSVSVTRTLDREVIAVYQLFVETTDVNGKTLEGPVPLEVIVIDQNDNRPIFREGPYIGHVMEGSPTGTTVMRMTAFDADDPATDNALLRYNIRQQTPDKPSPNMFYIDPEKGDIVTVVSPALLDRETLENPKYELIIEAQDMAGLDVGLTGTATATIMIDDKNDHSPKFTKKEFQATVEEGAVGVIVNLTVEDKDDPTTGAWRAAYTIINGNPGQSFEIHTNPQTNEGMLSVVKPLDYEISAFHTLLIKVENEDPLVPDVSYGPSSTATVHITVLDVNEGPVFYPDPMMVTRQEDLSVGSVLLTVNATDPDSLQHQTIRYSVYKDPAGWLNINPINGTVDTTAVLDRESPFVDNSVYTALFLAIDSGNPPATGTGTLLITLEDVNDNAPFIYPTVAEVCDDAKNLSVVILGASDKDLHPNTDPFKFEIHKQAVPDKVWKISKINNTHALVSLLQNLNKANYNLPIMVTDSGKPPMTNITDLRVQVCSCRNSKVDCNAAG
In words: cell microarray, library and confirmation screens.

The target in assay [20] is T7, recombinant cynomolgus CD30L protein (cynomolgus, UniProt A0A7N9CVX7 63-234).
T7 construct: Recombinant protein used in ELISA; also called cyCD30L
T7 sequence: T1 sequence (looked up) with V13I, K16R, I142V, I165V
In words: ELISA, 1/50 dil.

The target of assay [21] is T7, recombinant cynomolgus CD30L protein. In words: ELISA, 1/500 dil.
Assay [22] has the same target. In words: ELISA, 1/5000 dil.
For assay [23], the target named is T8, recombinant human CD30L protein (human, UniProt P32971 63-234).
T8 construct: Recombinant protein used in ELISA; also called huCD30L
T8 sequence (looked up): T1 sequence (looked up)
In words: ELISA, CD30 competitor, undil.

In assay [24] the target is T8, recombinant human CD30L protein. Description: ELISA, CD30 competitor, 1/10 dil.
Assay [25] shares this target. In words: ELISA, CD30 competitor, 1/100 dil.
The target is the same in assay [26]. In words: ELISA, CD30 competitor, 1/1000 dil.

Changes are numbered by the printed parent chain.

B1: anti-CD30L antibody clone 63 (antibody, V domains shown)
VH: EVQLVESGGGLVQPGGSLRLSCAASGFMFSSYSMNWVRQAPGKGLEWVSYISSSSSTIYDADSVKGRFTISRDDAKNSLYLQMNSLRDEDTAVYYCTREAYPGYYYNYMDVWGKGTTVTVSS
VL: DIQMTQSPSSLSASVGDRVTITCRASQSISSRLAWYQQKPGKAPNLLIYKASNLESGVPSRFSGSGSGTEFTLTISSLQPDDFATYYCQQYNSYSRTFGQGTKVEIK
notes: purified recombinant IgG (held by anti-human biosensors); mouse strain #1
By IC50 is commonly meant the concentration at which inhibition is half-maximal. What is called EC50 (read off the curve) is the concentration at which the effect is half-maximal. As for B1, the “rhCD30L (+) ELISA” value in [1] was 1.87. The “rcyCD30L (+) ELISA” value in assay [2] worked out at 0.724. In addition, in [3], the “rmCD30L (+) ELISA” value amounted to 0.046. Besides, the IC50 in assay [4] stood at 3.18 nM. Besides, the “EC50 (read off the curve)” value was roughly 0.1 nM in assay [5] and roughly 1 nM in assay [8]. The “hCD30L B16 (+) FLOW” value in assay [6] is 6.07e+06. In addition, in [7], the “rhCD30L:rhCD30 Blocking” value was 0.0592.

B2: anti-CD30L antibody clone 64 (antibody, V domains shown)
VH: EVQLVESGGGLVQPGGSLRLSCAASGFTFSNYAMTWVRQAPGKGLEWVSAISGFGGSTYYADSVKGRFTISRDNSKNTLYLQMNSLRAEDTAVYYCAKDHDYYAFDYWGQGTLVTVSS
VL: not shown
notes: as for B1
On to B2, for which the “rhCD30L (+) ELISA” value in [1] is 2.04. Besides, the “rcyCD30L (+) ELISA” value in [2] turned out to be 0.951. For the same molecule, the “rmCD30L (+) ELISA” value in assay [3] worked out at 0.049. Moreover, the IC50 in assay [4] was determined as 3.17 nM. Besides, the concentration giving a half-maximal response (EC50 (read off the curve)) is roughly 0.1 nM in [5] and roughly 1 nM in assay [8]. The “hCD30L B16 (+) FLOW” value in assay [6] was determined as 5.67e+06. Moreover, the “rhCD30L:rhCD30 Blocking” value in assay [7] worked out at 0.0633.

B3: anti-CD30L antibody clone 65 (antibody, V domains shown)
VH: B2 VH with R19K, F54Y, D62A, Y80F, T115P
VL: not shown
notes: as for B1
As to B3, the “rhCD30L (+) ELISA” value in [1] is 1.97. The “rcyCD30L (+) ELISA” value in assay [2] was found to be 1.38. In addition, in assay [3], the “rmCD30L (+) ELISA” value was 0.047. The IC50 in assay [4] is 3.66 nM. For the same molecule, the “EC50 (read off the curve)” value in assay [5] was roughly 0.1 nM; in [8] it was roughly 1 nM. Besides, in assay [6], the “hCD30L B16 (+) FLOW” value is 6.91e+06. Moreover, in assay [7], the “rhCD30L:rhCD30 Blocking” value is 0.0522.

B4: anti-CD30L antibody clone 1 (antibody, V domains shown)
VH: QVQLQESGPGLVKPSETLSLTCTVSGGSISGYYWSWIRQPPVKGLEWIGYIFYSGYTKYNPSLKSRVTISVDTSKNQFSLKLSSVTAADTAVYYCARDRWDFDYWGQGALVTVSS
VL: AIQMTQSPSYLSASVGDRVTIACRASQGIRNNLGWYQQKPGKAPKLLIYAESSLQSGVPSRFSGSGSGTDFTLTISSLQPEDFATYYCLQDFNYPYTFGQGTKLEIK
notes: also called clone 1 parental
A word on the EC50: it is the concentration needed to bring the measured effect to its halfway point. B4: in [9], the “Inhibition of IL-8 release in a dual cell assay (B16-huCD30L cells + K299 cells) IC50” value amounted to 1.43 nM. For the same molecule, in assay [10], the “Inhibition of IL-8 release in a dual cell assay (HEK293-cyCD30L cells + K299 cells) IC50” value amounted to 0.39 nM. Moreover, the concentration for a half-maximal effect (EC50) came out at 0.05 nM in assay [11], 0.07 nM in assay [12], 1.11 nM in [13] and 0.67 nM in assay [14]. The IC50 in assay [15] turned out to be 2.14 nM; in assay [16], 1.58 nM; in assay [17], 1.06 nM; in assay [18] it was 0.51 nM.

B5: anti-CD30L antibody clone 1 with IgG1 constant region SEQ ID NO: 502 (antibody, V domains shown)
VH: B4 VH
VL: B4 VL
notes: copies: 2 + 2
As for B5, the binding result in [19] is “no binding (tested: 5 µg/mL)”.

B6: anti-CD30L antibody clone 1 germlined with IgG1 constant region SEQ ID NO: 502 (antibody, V domains shown)
VH: B4 VH with V42G, A109T
VL: B4 VL with Y10S, A22T
notes: copies: 2 + 2
As to B6, the binding result in assay [19] is “no binding (tested: 5 µg/mL)”.

B7: Clone 4 (antibody, V domains shown)
VH: QVQLVESGGGVVQPGRSLRLSCAASGFPFSSYGMHWVRQAPGKGLEWVTFIWFDGNNKDYADSVKGRFSVSRDNSKNTLYLQMNSLRADDTAVYYCARNGVYYGSGAYVDYWGQGTLVTVSS
VL: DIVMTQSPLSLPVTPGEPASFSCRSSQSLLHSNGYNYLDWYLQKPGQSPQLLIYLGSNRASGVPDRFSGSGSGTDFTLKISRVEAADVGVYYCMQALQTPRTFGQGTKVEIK
notes: Hybridoma screening sample; also called CLONE_4 (parental)
For orientation: % inhibition means the percentage by which the read-out fell short of the control. For the molecule B7, the “Elisa Binding (OD)” value in [20] worked out at 2.58 OD; in [21], 2.38 OD; in [22] it was 0.583 OD. The “% inhibition” value was 98% in assay [23], 96% in [24], 10% in assay [25] and 0% in assay [26].

For the origin of these results see patent US20240254246A1 (PROMETHEUS BIOSCIENCES, published 2024).
